In article PMC8097376 (2021):
Numbering of substitutions follows the chain as printed.

B1: nanobody NM1225 (VHH)
VHH: QVQLVESGGGLVQPGGSLRLSCAASGNILRVHDMGWYRQAPGKQREYVAMITHGGITNYIDSVKGRFTISRDNAKNTVYLQMNSLKPEDTAVYYCHAVLSSALNGVTETSSNWGQGTQVTVSS
B2: nanobody NM1227 (VHH)
VHH: EVQLVESGGGLVQPGGSLTLSCETSGRHFDIDDMGWYRQAPGKQRELVACITTESSTTYADAVKGRFTISRDNPDNTVYLQMTNLKPEDTAVYYCNAEMHPRSLDYALGNRDYWGQGAPVTVSS
B3: nanobody NM1229 (VHH)
VHH: EVQLQESGGGLVQPGESLRLSCAASGRTHDWYTMGWFRQAPGKEREFVARINWSSGMTYYADSVKGRFTISRDNPKNTVYLQMNSLTPDDTAVYYCNVHPFTSPDYWGQGTRVTVSS
B4: nanobody NM1222 (VHH)
VHH: EVQLVESGGGLVRPGGSLRLSCVGSGFTFSGYAINWYRQAPGKALELVAGISNAGDLTHYEEAMKGRVAISRANDKNTVYLQMDDLKPEDTAVYRCHAPGVRVGTGERNDVWGQGAQVTVSS
B5: nanobody NM1221 (VHH)
VHH: B4 VHH with E1D, R13Q, R19T, T28L, I34M, L57I, A73V, G104A, T105S, A116T
B6: nanobody NM1223 (VHH)
VHH: EVQLVESGGGLVQPGGSLRLSCSASGFAFSSVSMSWVRLLPGKGTEWVAEIDRDGGNGNYEDSVKGRFTISRDNAKNTLFLQMNSLVPEDTALYYCRLGTRDHIMSGWGPGAPVTVSS
B7: nanobody NM1224 (VHH)
VHH: DVQLVESGGSLVQPGGSLRLSCETSRSSLDAYAIGWFRQAPGKEREGVASISSSSMRTEYADSVKGRFTISRDNAKNTAYLDMNSLKPEDTAVYYCAAAGEYGRAWPGLDWYEFEYEGPGSPVTVSS
B8: nanobody NM1230 (VHH)
VHH: B4 VHH with E1Q, I34M, A63P, N109K
B9: nanobody NM1228 (VHH)
VHH: DVQLVESGGGLVRPGGSLRLSCESSGRHFDIDTMGWYRQAPGKQRELVASITSEKSTVYADALKGRFTISRDIPDNNVYLQMNNLKPEDTAVYYCNAKMDPHSLDYALGNQVFWGQGSLVTVSS
B10: nanobody NM1226 (VHH)
VHH: QVQLVESGGGSVQPGGSLRLSCLGSGSLDYYAIGWFRQAPGKEREGVSCIASSGDRTIYADSVKGRFTISRDYGKNTVYLQMNSLKPEDTAMYYCAALQGSYYYTGFVANEYDYWGQGAPVTVSS

The binders below were run against T1, SARS-CoV-2 spike receptor-binding domain (RBD) (SARS-CoV-2, UniProt P0DTC2 319-541) (assay: BLI).

| Binder | Kd |
| --- | --- |
| B1 | 53700 nM |
| B2 | 3.72 nM |
| B3 | 53.2 nM |
| B4 | 18 nM |
| B5 | 22.7 nM |

Biological target: T1, SARS-CoV-2 spike receptor-binding …
Test: BLI
Remark: another data set of the same source

| Binder | koff |
| --- | --- |
| B1 | 0.473 s⁻¹ |
| B6 | 0.00027 s⁻¹ |
| B2 | 0.00079 s⁻¹ |
| B3 | 0.00985 s⁻¹ |
| B7 | 0.00267 s⁻¹ |
| B4 | 0.00294 s⁻¹ |
| B5 | 0.00296 s⁻¹ |
| B8 | 0.00166 s⁻¹ |
| B9 | 0.00064 s⁻¹ |
| B10 | 0.00115 s⁻¹ |

Each binder was assayed against S1 domain of the SARS-CoV-2 spike protein (SARS-CoV-2, UniProt P0DTC2 14-681) (assay: not given).

| Binder | IC50 |
| --- | --- |
| B2 | 3.51 nM |
| B3 | 56.1 nM |
| B4 | 27.3 nM |
| B5 | 43.3 nM |
| B8 | 10.6 nM |
| B9 | 0.85 nM |
| B10 | 1.44 nM |

What follows are binders tested against T1, SARS-CoV-2 spike receptor-binding … (assay: not given).

| Binder | IC50 |
| --- | --- |
| B2 | 1.65 nM |
| B3 | 37.8 nM |
| B7 | 36.6 nM |
| B4 | 5.8 nM |
| B5 | 10.1 nM |
